We go through 6 molecules from patent publication CN114656564A (ANHUI ANKE BIOLOGICAL ENG GROUP CO LTD, dated 2022).

For one assay, the target named is T1, rhOX40-Avi-His (human, UniProt P43489 29-214).
T1 construct: range 29-214; Recombinant protein made from plasmid pCD-OX40-Avi-His; also called OX40抗原; 抗原蛋白OX40; not shown: Avi tag; His tag
T1 sequence (looked up): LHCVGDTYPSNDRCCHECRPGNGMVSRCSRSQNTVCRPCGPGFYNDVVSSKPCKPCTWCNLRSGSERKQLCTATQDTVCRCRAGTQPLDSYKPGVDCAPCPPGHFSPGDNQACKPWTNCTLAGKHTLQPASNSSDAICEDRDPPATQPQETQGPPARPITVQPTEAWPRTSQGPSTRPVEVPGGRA
Nature of the assay: ELISA on coated rhOX40-Avi-His. (ELISA stands for enzyme-linked immunosorbent assay.)

Assay [1] concerns the target T2, human OX40 expressed on Jurkat cells (Jurkat-OX40-NFκB-Luc) (human, UniProt P43489 29-277).
T2 construct: whole, on cells; also called Jurkat-OX40-NFκB-21C6; 表达OX40抗原的Jurkat细胞系
T2 sequence (looked up): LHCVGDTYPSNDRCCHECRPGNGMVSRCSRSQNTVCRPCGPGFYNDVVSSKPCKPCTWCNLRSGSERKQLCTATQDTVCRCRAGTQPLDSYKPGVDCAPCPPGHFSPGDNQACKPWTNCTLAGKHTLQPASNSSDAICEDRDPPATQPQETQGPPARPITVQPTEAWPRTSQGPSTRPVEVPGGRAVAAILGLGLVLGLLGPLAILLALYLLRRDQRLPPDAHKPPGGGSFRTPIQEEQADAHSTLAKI
Nature of the assay: flow cytometry on Jurkat cells expressing OX40, anti-human Fc-FITC. Background: In flow cytometry, cells or beads pass a laser one at a time.

Another assay addresses T3, rhOX40-Avi-His-bio (human, UniProt P43489 29-214, biotin covalently attached to the Avi tag by BirA).
T3 construct: range 29-214; Biotinylated form of rhOX40-Avi-His, captured on SA chip in SPR; also called 生物素标记的抗原; not shown: Avi tag (biotinylated); His tag
T3 sequence (looked up): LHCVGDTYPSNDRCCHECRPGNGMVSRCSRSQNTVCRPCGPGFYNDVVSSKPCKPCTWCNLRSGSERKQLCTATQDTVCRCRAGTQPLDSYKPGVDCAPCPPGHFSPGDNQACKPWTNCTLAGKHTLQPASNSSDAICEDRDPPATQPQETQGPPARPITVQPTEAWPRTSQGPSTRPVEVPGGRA
The experiment in a line: SPR (T200), biotinylated rhOX40-Avi-His-bio captured on SA chip, D7-Fc as analyte.

B1: D2-Fc (Fc fusion)
chain: DVQLVESGGGLVQPGGSLRLSCAASGLTSSLYIWGWFRQAPGKGREWVSTIWDADVTDYADSVKGRFTISRDNAKNTVYLQMNSLRAEDTAVYYCARRDFDSLADGLDYWGQGTQVTVSA
notes: not shown: IgG1 Fc region, from human
As for B1, the binding result (in the assay with rhOX40-Avi-His; in assay [1]) was “binds” in each case.

B2: C7-Fc (Fc fusion)
chain: DVQLVESGGGLVQPGGSLRLSCAASGSIPSDTAMYWFRQAPGKGREWVSVIWGSGVTYYADSVKGRFTISRDNAKNTVYLQMNSLRAEDTAVYYCARTGLGRAYWGQGTQVTVSA
notes: as for B1
With B2, in the assay with rhOX40-Avi-His, the binding result is “binds”.

B3: D1-Fc (Fc fusion)
chain: DVQLVESGGGLVQPGGSLRLSCAASGRTASGYTIGWFRQAPGKGRELVSAINRAGSATHYADSVKGRFTISRDNAKNTVYLQMNSLRAEDTAVYYCARSGRWGRYWLAYWGQGTQVTVSA
notes: as for B1
With B3, the binding result (with rhOX40-Avi-His; in assay [1]) was “binds” throughout.

B4: A1-Fc (Fc fusion)
chain: DVQLVESGGGLVQPGGSLRLSCAASGFSYNRTDIRWFRQAPGKGRELVAGIANWGGTTYYADSVKGRFTISRDNAKNTVYLQMNSLRAEDTAVYYCARRRYECVDWIVDPWWDYWGQGTQVTVSA
notes: as for B1
For B4, the binding result (with rhOX40-Avi-His; in assay [1]) was “binds” in each case.

B5: D7-Fc (Fc fusion)
chain: DVQLVESGGGLVQPGGSLRLSCAASGFTASIYGMRWFRQAPGKGRELVAGIVDAGSATYYADSVKGRFTISRDNAKNTVYLQMNSLRAEDTAVYYCARGNHEGEVGLDYWGQGTQVTVSA
notes: as for B1
For B5, in the assay with rhOX40-Avi-His-bio, the Kd (usually a measure of binding affinity in units of concentration) is approximately 16.8 nM.

B6: D12-Fc (Fc fusion)
chain: DVQLVESGGGLVQPGGSLRLSCAASGRQFGSYAMSWFRQAPGKGREWVSTIDSAGGSTNYADSVKGRFTISRDNAKNTVYLQMNSLRAEDTAVYYCARLIDWYCIDYFDYWGQGTQVTVSA
notes: as for B1
Consider B6, for which the binding result with rhOX40-Avi-His was “binds”.
